Assay in all cases: SPOT array
Assay [1] deals with T1, Boi2 SH3 (BOI2_YEAST), P39969.
T1 chain: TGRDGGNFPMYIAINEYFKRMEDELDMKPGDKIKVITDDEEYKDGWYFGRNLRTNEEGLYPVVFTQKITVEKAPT

In assay [2] the target is T2, Myo5 SH3 (MYO5_YEAST), Q04439.
T2 chain: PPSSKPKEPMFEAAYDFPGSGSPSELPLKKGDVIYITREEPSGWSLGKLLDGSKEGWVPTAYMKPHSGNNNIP

For assay [3], the target named is T3, Yhr016c SH3 (YSC84_YEAST), P32793.
T3 chain: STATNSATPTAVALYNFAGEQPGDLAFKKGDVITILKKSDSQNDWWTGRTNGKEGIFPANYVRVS

The target in assay [4] is T4, Rvs167 SH3 (RV167_YEAST), P39743.
T4 chain: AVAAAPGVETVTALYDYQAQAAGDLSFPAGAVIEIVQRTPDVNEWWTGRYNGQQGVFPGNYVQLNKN

For assay [5], the target named is T5, Yfr024 SH3 (LSB3_YEAST), P43603.
T5 chain: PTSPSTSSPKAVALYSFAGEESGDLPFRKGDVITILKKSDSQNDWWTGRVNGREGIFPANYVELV

Assay [6] has as its target Sho1 SH3 (SHO1_YEAST), P40073.
Assay [7] concerns the target T6, Boi1 SH3 (BOI1_YEAST), P38041.
T6 chain: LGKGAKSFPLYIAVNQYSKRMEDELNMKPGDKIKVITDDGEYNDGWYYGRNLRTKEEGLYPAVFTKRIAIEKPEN

Chain of Sho1 SH3 (SHO1_YEAST), P40073 (P40073 295-366): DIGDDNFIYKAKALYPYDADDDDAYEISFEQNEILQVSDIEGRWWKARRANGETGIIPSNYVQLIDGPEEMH

With IAKLKRKPVVPRLK [YPR056W 317-330], the normalised SPOT signal, Boehringer light units (BLU); mean over the file's lines of this peptide in assay [1] was 39.8; in assay [2], 888; in assay [3] it was 87.4; in assay [4], 29.5; in assay [5], 489; in assay [6] it was 57.1. In assay [7], this molecule had a normalised SPOT signal, Boehringer light units (BLU); mean over the file's lines of this peptide of 136.

Take IKYFKKFPKDPLAM [YPR189W 306-319]: the normalised SPOT signal, Boehringer light units (BLU); mean over the file's lines of this peptide in assay [1] was 9.4; in assay [2] it was 237; in assay [3], 58.6; in assay [4], 85.2; in assay [5] it was 304; in assay [6] it was 276. Also, the normalised SPOT signal, Boehringer light units (BLU); mean over the file's lines of this peptide in assay [7] is 132.

IESLREIPYGPDFD [YML105C 200-213]: the normalised SPOT signal, Boehringer light units (BLU); mean over the file's lines of this peptide in assay [1] amounted to 22; in assay [2] it was 116; in assay [3], 1.9; in assay [4], 14.9; in assay [5], 2.6; in assay [6] it was 47.7. The same molecule gave a normalised SPOT signal, Boehringer light units (BLU); mean over the file's lines of this peptide in assay [7] of 16.4.

Regarding IGSPRHAPSRPDSI [YOL138C 1121-1134], the normalised SPOT signal, Boehringer light units (BLU); mean over the file's lines of this peptide worked out at 28.1 in assay [1]; 193 in assay [2]; 57.9 in assay [3]; 124 in assay [4]; 1010 in assay [5]; 18.4 in assay [6]. For the same molecule, the normalised SPOT signal, Boehringer light units (BLU); mean over the file's lines of this peptide in assay [7] came to 182.

With IKMSRSPPRPPSLK [YDR243C 237-250], the normalised SPOT signal, Boehringer light units (BLU); mean over the file's lines of this peptide in assay [1] was 416; in assay [2], 17700; in assay [3], 1780; in assay [4], 1150; in assay [5] it was 8250; in assay [6], 223. The same molecule displayed a normalised SPOT signal, Boehringer light units (BLU); mean over the file's lines of this peptide in assay [7] of 1330.

With IDKSKLSPRFPELK [YDR237W 35-48], the normalised SPOT signal, Boehringer light units (BLU); mean over the file's lines of this peptide in assay [1] was found to be 10.4; in assay [2] it was 233; in assay [3], 22.5; in assay [4], 54.9; in assay [5] it was 133; in assay [6], 35.5. The same molecule yielded a normalised SPOT signal, Boehringer light units (BLU); mean over the file's lines of this peptide in assay [7] of 119.

For IAVTRSIPRGPDKN [YOR322C 264-277], the normalised SPOT signal, Boehringer light units (BLU); mean over the file's lines of this peptide worked out at 34.5 in assay [1]; 158 in assay [2]; 43.3 in assay [3]; 283 in assay [4]; 555 in assay [5]; 65 in assay [6]. The normalised SPOT signal, Boehringer light units (BLU); mean over the file's lines of this peptide in assay [7] turned out to be 256.

As for IAEWKNDPNNPNFE [YMR277W 194-207], the normalised SPOT signal, Boehringer light units (BLU); mean over the file's lines of this peptide in assay [1] turned out to be 28.7; in assay [2], 91.1; in assay [3], 9.5; in assay [4], 20.5; in assay [5], 0; in assay [6], 25.5. For the same molecule, in assay [7], the normalised SPOT signal, Boehringer light units (BLU); mean over the file's lines of this peptide was found to be 69.4.

Take IAGQRTFPEDPNYP [YKR051W 375-388]: the normalised SPOT signal, Boehringer light units (BLU); mean over the file's lines of this peptide in assay [1] is 0; in assay [2] it was 172; in assay [3], 16; in assay [4] it was 28.7; in assay [5] it was 89.6; in assay [6], 43.4. The molecule further returned a normalised SPOT signal, Boehringer light units (BLU); mean over the file's lines of this peptide in assay [7] of 45.1.

Regarding IESFRERPLEPPRK [YDR448W 138-151], the normalised SPOT signal, Boehringer light units (BLU); mean over the file's lines of this peptide in assay [1] worked out at 120; in assay [2] it was 98.7; in assay [3] it was 88.1; in assay [4], 163; in assay [5] it was 2680; in assay [6], 55.1. For the same molecule, the normalised SPOT signal, Boehringer light units (BLU); mean over the file's lines of this peptide in assay [7] was 46.7.

On to IFVTRYLPYFPIMY [YBL066C 354-367], for which the normalised SPOT signal, Boehringer light units (BLU); mean over the file's lines of this peptide in assay [1] was found to be 1150; in assay [2], 157; in assay [3] it was 180; in assay [4], 373; in assay [5] it was 674; in assay [6], 115. This molecule also returned a normalised SPOT signal, Boehringer light units (BLU); mean over the file's lines of this peptide in assay [7] of 60.7.

On to IDIPRTNPHIPLYQ [YOR070C 339-352], for which the normalised SPOT signal, Boehringer light units (BLU); mean over the file's lines of this peptide in assay [1] is 3.3; in assay [2], 139; in assay [3] it was 0; in assay [4], 9.1; in assay [5], 34.3; in assay [6] it was 40.3. In addition, in assay [7], the normalised SPOT signal, Boehringer light units (BLU); mean over the file's lines of this peptide is 50.1.

In the case of IGKSKSAPPIPEDT [YJL095W 1392-1405], the normalised SPOT signal, Boehringer light units (BLU); mean over the file's lines of this peptide in assay [1] is 58.9; in assay [2], 244; in assay [3], 12.5; in assay [4], 26; in assay [5], 42.9; in assay [6], 6.7. In assay [7], the normalised SPOT signal, Boehringer light units (BLU); mean over the file's lines of this peptide was found to be 74.3.

Take ILAVKKNPQSPMYT [YER126C 197-210]: the normalised SPOT signal, Boehringer light units (BLU); mean over the file's lines of this peptide in assay [1] stood at 26.2; in assay [2], 175; in assay [3], 22.6; in assay [4] it was 26.4; in assay [5] it was 69.6; in assay [6] it was 25.9. This molecule came in with a normalised SPOT signal, Boehringer light units (BLU); mean over the file's lines of this peptide in assay [7] of 128.

For the origin of these results see publication PMC314469, “Protein Interaction Networks by Proteome Peptide Scanning” (PLoS Biology, 2004).
